Molecular target: N2Bus phosphorylated by PKA catalytic subunit or cGMP-activated PKG
Test: pull-down; GST pull-down: purified protein incubated with a GST-fusion protein immobilised on glutathione sepharose beads, 4 °C, 1.5 h; washes in high and low salt buffer; SDS-PAGE and western blot

B1: recombinant human full-length PP5 (enzyme)
chain: MAMAEGERTECAEPPRDEPPADGALKRAEELKTQANDYFKAKDYENAIKFYSQAIELNPSNAIYYGNRSLAYLRTECYGYALGDATRAIELDKKYIKGYYRRAASNMALGKFRAALRDYETVVKVKPHDKDAKMKYQECNKIVKQKAFERAIAGDEHKRSVVDSLDIESMTIEDEYSGPKLEDGKVTISFMKELMQWYKDQKKLHRKCAYQILVQVKEVLSKLSTLVETTLKETEKITVCGDTHGQFYDLLNIFELNGLPSETNPYIFNGDFVDRGSFSVEVILTLFGFKLLYPDHFHLLRGNHETDNMNQIYGFEGEVKAKYTAQMYELFSEVFEWLPLAQCINGKVLIMHGGLFSEDGVTLDDIRKIERNRQPPDSGPMCDLLWSDPQPQNGRSISKRGVSCQFGPDVTKAFLEENNLDYIIRSHEVKAEGYEVAHGGRCVTVFSAPNYCDQMGNKASYIHLQGSDLRPQFHQFTAVPHPNVKPMAYANTLLQLGMM
fold binding against unphosphorylated N2Bus: 2 to 3 times
